± gives the standard error. Variants at the floor of the assay were thinned out.
B1: glmS ribozyme (parent)
chain: AUAAAAGCGCCAGAACUACAGAAAUGUAGUUGACGAGGAGGAGGUUUAUCGAAUUUUCGGCGGAUGCCUCCAAA

Experiments:
Conditions in all cases: with glucosamine-6-phosphate
glucosamine-6-phosphate [1] = variants of: B1; experiment: self-cleavage kobs at 40 uM GlcN6P; higher = faster cleavage; RNA array
Method in brief: (§1)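 Sequenced MiSeq chips were the platform: E. coli RNA polymerase transcribed barcoded ribozyme variants on them in situ, and a hybridised Cy3 probe tracked these at 37 °C. After glucosamine-6-phosphate (40 μM to 10 mM) in HEPES/KCl/Mg(OAc)2 buffer was flowed in, tiles were imaged over ~14 h. Signals normalised to baseline and to non-cleaving reference variants were reduced to per-tile medians and fit to one- or two-exponential decays to obtain kobs. kcat and KM were derived through weighted Michaelis–Menten fits across concentrations.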

glucosamine-6-phosphate [2] = variants of: B1; experiment: self-cleavage kobs at 160 uM GlcN6P; higher = faster cleavage; RNA array
Method in brief: as §1

glucosamine-6-phosphate [3] = variants of: B1; experiment: self-cleavage kobs at 640 uM GlcN6P; higher = faster cleavage; RNA array
Method in brief: as §1

glucosamine-6-phosphate [4] = variants of: B1; experiment: self-cleavage kobs at 2500 uM GlcN6P; higher = faster cleavage; RNA array
Method in brief: as §1

glucosamine-6-phosphate [5] = variants of: B1; experiment: self-cleavage kobs at 10000 uM GlcN6P; higher = faster cleavage; RNA array
Method in brief: as §1

Variant: G62C
- self-cleavage kobs at 40 uM GlcN6P (glucosamine-6-phosphate [1]): < 1e-05 s⁻¹
- self-cleavage kobs at 160 uM GlcN6P (glucosamine-6-phosphate [2]): < 1e-05 s⁻¹
- self-cleavage kobs at 640 uM GlcN6P (glucosamine-6-phosphate [3]): < 1e-05 s⁻¹
- self-cleavage kobs at 2500 uM GlcN6P (glucosamine-6-phosphate [4]): < 1e-05 s⁻¹
- self-cleavage kobs at 10000 uM GlcN6P (glucosamine-6-phosphate [5]): < 1e-05 s⁻¹

Variant: U55A U69C
- self-cleavage kobs at 40 uM GlcN6P (glucosamine-6-phosphate [1]): 0.000718 ± 0.00017 s⁻¹
- self-cleavage kobs at 160 uM GlcN6P (glucosamine-6-phosphate [2]): 0.000108 ± 3.1e-05 s⁻¹
- self-cleavage kobs at 640 uM GlcN6P (glucosamine-6-phosphate [3]): 0.000329 ± 0.0001 s⁻¹
- self-cleavage kobs at 2500 uM GlcN6P (glucosamine-6-phosphate [4]): 7.69e-05 ± 3e-05 s⁻¹
- self-cleavage kobs at 10000 uM GlcN6P (glucosamine-6-phosphate [5]): 0.00148 ± 0.0004 s⁻¹

Variant: A6G C11A A14U G40A
- self-cleavage kobs at 160 uM GlcN6P (glucosamine-6-phosphate [2]): < 1e-05 s⁻¹

Variant: A6C A39C C70U
- self-cleavage kobs at 160 uM GlcN6P (glucosamine-6-phosphate [2]): < 1e-05 s⁻¹
- self-cleavage kobs at 2500 uM GlcN6P (glucosamine-6-phosphate [4]): < 1e-05 s⁻¹

Variant: G63U C67G
- self-cleavage kobs at 40 uM GlcN6P (glucosamine-6-phosphate [1]): < 1e-05 s⁻¹
- self-cleavage kobs at 160 uM GlcN6P (glucosamine-6-phosphate [2]): < 1e-05 s⁻¹
- self-cleavage kobs at 10000 uM GlcN6P (glucosamine-6-phosphate [5]): < 1e-05 s⁻¹

Variant: G59A G60U
- self-cleavage kobs at 40 uM GlcN6P (glucosamine-6-phosphate [1]): < 1e-05 s⁻¹
- self-cleavage kobs at 640 uM GlcN6P (glucosamine-6-phosphate [3]): < 1e-05 s⁻¹
- self-cleavage kobs at 2500 uM GlcN6P (glucosamine-6-phosphate [4]): < 1e-05 s⁻¹
- self-cleavage kobs at 10000 uM GlcN6P (glucosamine-6-phosphate [5]): < 1e-05 s⁻¹

Variant: C58G G59U
- self-cleavage kobs at 40 uM GlcN6P (glucosamine-6-phosphate [1]): < 1e-05 s⁻¹
- self-cleavage kobs at 160 uM GlcN6P (glucosamine-6-phosphate [2]): < 1e-05 s⁻¹
- self-cleavage kobs at 640 uM GlcN6P (glucosamine-6-phosphate [3]): < 1e-05 s⁻¹
- self-cleavage kobs at 2500 uM GlcN6P (glucosamine-6-phosphate [4]): < 1e-05 s⁻¹
- self-cleavage kobs at 10000 uM GlcN6P (glucosamine-6-phosphate [5]): < 1e-05 s⁻¹

Variant: C61A U69A
- self-cleavage kobs at 40 uM GlcN6P (glucosamine-6-phosphate [1]): < 1e-05 s⁻¹
- self-cleavage kobs at 10000 uM GlcN6P (glucosamine-6-phosphate [5]): < 1e-05 s⁻¹

Variant: A6U G38C A64U G66U
- self-cleavage kobs at 160 uM GlcN6P (glucosamine-6-phosphate [2]): < 1e-05 s⁻¹
- self-cleavage kobs at 640 uM GlcN6P (glucosamine-6-phosphate [3]): < 1e-05 s⁻¹
- self-cleavage kobs at 2500 uM GlcN6P (glucosamine-6-phosphate [4]): < 1e-05 s⁻¹

Variant: U54A C71U
- self-cleavage kobs at 40 uM GlcN6P (glucosamine-6-phosphate [1]): 0.00124 ± 0.00023 s⁻¹
- self-cleavage kobs at 160 uM GlcN6P (glucosamine-6-phosphate [2]): 0.00159 ± 0.00033 s⁻¹
- self-cleavage kobs at 640 uM GlcN6P (glucosamine-6-phosphate [3]): 0.00337 ± 0.00063 s⁻¹
- self-cleavage kobs at 2500 uM GlcN6P (glucosamine-6-phosphate [4]): 0.00313 ± 0.00083 s⁻¹
- self-cleavage kobs at 10000 uM GlcN6P (glucosamine-6-phosphate [5]): 0.0214 ± 0.01 s⁻¹

Variant: U54A C71G
- self-cleavage kobs at 40 uM GlcN6P (glucosamine-6-phosphate [1]): 0.000131 ± 2.1e-05 s⁻¹
- self-cleavage kobs at 160 uM GlcN6P (glucosamine-6-phosphate [2]): 0.000336 ± 0.00012 s⁻¹
- self-cleavage kobs at 640 uM GlcN6P (glucosamine-6-phosphate [3]): 0.000507 ± 0.00011 s⁻¹
- self-cleavage kobs at 2500 uM GlcN6P (glucosamine-6-phosphate [4]): 0.000368 ± 0.00016 s⁻¹
- self-cleavage kobs at 10000 uM GlcN6P (glucosamine-6-phosphate [5]): 0.00197 ± 0.00046 s⁻¹

Variant: G66A U69A
- self-cleavage kobs at 40 uM GlcN6P (glucosamine-6-phosphate [1]): 8.7e-05 ± 1.7e-05 s⁻¹
- self-cleavage kobs at 160 uM GlcN6P (glucosamine-6-phosphate [2]): 0.000185 ± 3.8e-05 s⁻¹
- self-cleavage kobs at 640 uM GlcN6P (glucosamine-6-phosphate [3]): 0.0005 ± 9.3e-05 s⁻¹
- self-cleavage kobs at 2500 uM GlcN6P (glucosamine-6-phosphate [4]): 0.000595 ± 0.00011 s⁻¹
- self-cleavage kobs at 10000 uM GlcN6P (glucosamine-6-phosphate [5]): 0.00178 ± 0.00037 s⁻¹

Variant: A6U C10G A52G U56G
- self-cleavage kobs at 160 uM GlcN6P (glucosamine-6-phosphate [2]): < 1e-05 s⁻¹
- self-cleavage kobs at 2500 uM GlcN6P (glucosamine-6-phosphate [4]): < 1e-05 s⁻¹

Variant: A6C C10A
- self-cleavage kobs at 160 uM GlcN6P (glucosamine-6-phosphate [2]): < 1e-05 s⁻¹
- self-cleavage kobs at 640 uM GlcN6P (glucosamine-6-phosphate [3]): < 1e-05 s⁻¹
- self-cleavage kobs at 2500 uM GlcN6P (glucosamine-6-phosphate [4]): < 1e-05 s⁻¹
- self-cleavage kobs at 10000 uM GlcN6P (glucosamine-6-phosphate [5]): < 1e-05 s⁻¹

Variant: A6G C50U U54C
- self-cleavage kobs at 160 uM GlcN6P (glucosamine-6-phosphate [2]): < 1e-05 s⁻¹
- self-cleavage kobs at 640 uM GlcN6P (glucosamine-6-phosphate [3]): < 1e-05 s⁻¹
- self-cleavage kobs at 2500 uM GlcN6P (glucosamine-6-phosphate [4]): < 1e-05 s⁻¹

Variant: C61A G62C G63U C71A
- self-cleavage kobs at 40 uM GlcN6P (glucosamine-6-phosphate [1]): < 1e-05 s⁻¹
- self-cleavage kobs at 10000 uM GlcN6P (glucosamine-6-phosphate [5]): < 1e-05 s⁻¹

Variant: G66C C68A
- self-cleavage kobs at 40 uM GlcN6P (glucosamine-6-phosphate [1]): < 1e-05 s⁻¹
- self-cleavage kobs at 640 uM GlcN6P (glucosamine-6-phosphate [3]): 0.000128 ± 5.4e-05 s⁻¹
- self-cleavage kobs at 2500 uM GlcN6P (glucosamine-6-phosphate [4]): 5.93e-05 ± 2.7e-05 s⁻¹

Variant: A6C G35C G44U
- self-cleavage kobs at 160 uM GlcN6P (glucosamine-6-phosphate [2]): < 1e-05 s⁻¹
- self-cleavage kobs at 640 uM GlcN6P (glucosamine-6-phosphate [3]): < 1e-05 s⁻¹
- self-cleavage kobs at 2500 uM GlcN6P (glucosamine-6-phosphate [4]): < 1e-05 s⁻¹

Variant: U54C C70A
- self-cleavage kobs at 40 uM GlcN6P (glucosamine-6-phosphate [1]): 3e-05 ± 1.2e-05 s⁻¹
- self-cleavage kobs at 160 uM GlcN6P (glucosamine-6-phosphate [2]): 5.86e-05 ± 2.8e-05 s⁻¹
- self-cleavage kobs at 640 uM GlcN6P (glucosamine-6-phosphate [3]): 0.000124 ± 2.4e-05 s⁻¹
- self-cleavage kobs at 2500 uM GlcN6P (glucosamine-6-phosphate [4]): 0.000512 ± 0.00011 s⁻¹
- self-cleavage kobs at 10000 uM GlcN6P (glucosamine-6-phosphate [5]): 0.000206 ± 2.9e-05 s⁻¹
